According to the nanobody polyreactivity screen of Harvey et al. (2022):

Assay: yeast display, Sf9 membrane polyspecificity reagent, FACS + sequencing; frameworks hold sequencing errors
Method in brief: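 Synthetic nanobody libraries on Saccharomyces cerevisiae BJ5465 were galactose-induced for 36–48 hours, stained 1 hour at 4 °C with 10% biotinylated, detergent-solubilized Sf9 membrane reagent and enriched on streptavidin microbeads. FACS then separated cells into low and high (top ~1%) gates by anti-HA (expression) and streptavidin (reagent binding) fluorescence. Genes were colony-PCR amplified, MiSeq 2 × 250 sequenced and CDR-length filtered. A clone's polyreactivity label is that of its gate of origin.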

Sequence	polyreactivity (PSR sort gate)
QVQLVESGGGLVQAGGSLRLSCPASGNIFLSYAMGWYRQAPGKERELVAGISASGGRTYYADSVKGRFTISRDNAKNTVYLQMNSLKPEDTAVYYCATRGQTRTTTRYYSWGQGTQVTVSS	high polyreactivity
QVHLVESGGGLVQAGGSLRLSCAASGIILYGYAMGWYRQAPGKERELVAAITKSGGSTYYADSVKGRFTISRDNAKNTVYLLMNSLKPEDTAVYYCAAKLWGIWYYGYRPDDYWGQGTQVTVSS	low polyreactivity
QVQLVESGGGLVQAGGSLRLRCAASGLTFGVYPMGWYRQAPGKERELVAAISSSGGSTYYADSVKGRYTISRDYAKNTVYLHMNSLKPEDTAVYYCNAGRGTKYDYWGQGTQVTVSS	low polyreactivity
QVQLVESGGGLVQAGGSLRLSCAATGLFDVYAMGGYRQAPRKERELVAAISSDGSTYYADSVKGRFTISRDNAKNTVYLQMNSLKPEDTAVYYCNADTSGSPYLQGYVGYGYWGQGTQVTVSS	low polyreactivity
QVQHVESGGGLVQAGGSLRLSCAASGIILGSYAMGWYRQAPGKEMELVAAIRWSRGRTYYADSVKGRFTISRDNAKNTVYLQMNSLKPEDSAVYYCAAANSRRGYDYWGQGTQVTVSS	high polyreactivity
QVQLVESGGGLVQAGGSLRLSCAASGSTFTSNTRWYRQAPGKERELVAAISNRGGGTYYADSVKGRFTISRDNAKNTVYLQMNSLKPEDTAVYYCNAAGYARKTAYYYWGQGTQVTVSS	high polyreactivity
QFQLVESGGGLVQAGGSLRLSCAASGFIFSNNAMGWYRQAPGKDRELVAAISKSGGGTSYADSVKGRFTISRDNAKNTVYLQMNSLKPDDTAVYYCAKEWRKKTDYDYWGQGTQVTVSS	high polyreactivity
QVHLVESGGGLVQAGGSLRLSCAASGRISKLYAMGWYRQAHGKERDLVAAISSGGSTYYADSVKGRFTISRDNAKNTVYLQMNSLKPEDTAVYYCAVTQVMQYGIPYSYTRDYWGQGTQVTVSS	low polyreactivity
QVQLVESGVGLVQAGRSLRLSCAASGRTFVQYAMGWYRQAPGKERELVARISRRGGSTYYADSVKGRFTISRDKAKNSVYLQMNSLKPEDTAVYYFAADAYPYWYDYWGQGTQVTVSS	high polyreactivity
QVQLVESGGGLVQAGGSLRLSCAASGSIFESNAMGWYRQAPGKERELVAAYADSVKGRFTISRDNAKNTVYLQMNSLKPEDTAVYYCAKSLSLYVVPLYEYWGQGTQVTVSS	low polyreactivity
QVQLVESGGGIVQAGGSLRLSCAASGYTFRGNVMGWYRQAPGKERELVAAISRSGGSTYYADSVKGRFTISRDNAKNTVYLQMYCLKPADTAVHYCAKKPTSTYQQDSPRWSDYWGQGTQVTVSS	high polyreactivity
QDQLVESGGGLVQAGGSLRLSCAASGRIFKSYAMGWYRQAHGKERELVAAISSSGGSTYYADSVKGRFTISRDNAKNTVYLQMNSLKPEDTAVYYCAAYGHYSWSYDYWGQGTQVTVSS	high polyreactivity
QVQLVESGGGLVQAGGSLRLSCAASGRIFYSYAMGWYREAPGKERELVARITRGSSTYYADSVKGRFTISRDNAKNTVYLQMNSLKPEDTAVYYCAKSRYTALTNHWSHDYWGQGTQVTVSS	low polyreactivity
QVQLVESGGGLVQAGGSLRLSCAASGRTFFGYAMGWYRQAPGKERELVAAINWGGASTYYADSVKGRFTISRDNAKNTVYLQMNSLKPEDTAVYYCAADSVPSRPTYGRYDYWGQGTQVTVSS	low polyreactivity
QVQLVESGGGLVQAGGSLRLSCAASGRTFRLYAMGWYRQAPGKERELVASISRSVGSTYYADSVKGRFTISRDNAKNTVYLQMNSLKPVDTAVYYCAARSYIPGGWYGAYYYWGQGTQVTVSS	high polyreactivity
QVQLVESGGGLVQARGSLRLSCASSGSTFGGYAMGWYRQAPGKERELVPAITRSGGSTYYADSVKGRFTISRDNGKNTVYLQMNSLKPEDTAVYYCAARVPRGDRPGYHYAYYYWGQGTQVTVSS	high polyreactivity
QVQLVESGGGLVQAGGSLRLICAAYGSTFVTNVMGWYRQAPGKERELVAAISARGGSTYYADSVKGRFTISRDNAKNTVYLQMNSLKPEDTAVYYCNAVVRPWQSYYYWGQGTQVTVSS	high polyreactivity
QVQLVESGAGLVQAGGSLRISCAASGRTFGLNDMAWYRPAPGKERELVAAITWSDDDTYYADSVKGRFTISRDNAKNTVYLQMNSLKPEDTAVYYCAKSRYDYTKTECGYWGQGTEVTVSS	low polyreactivity
QVQLVESRGCLVQAGGSLRLSCSASGYIFVYYAMGWYRQAPGKEWELVAAISRGGSTYYADSVKGRFTISRDNAKNTVYLQMNSLKPEDTAVYYCNKVLPYGREYGYCGQGTQVTVSS	high polyreactivity
QVQLVESGGGLVQAGGSLRLSCAASGSTFVGYVMGWYRQAPGKERELVAAITRSGTSTYYADSVKGRFTISRDNAKNTVYLQMNSLKPEDTAVYYCARRYVSSDYYYWGQGTQVTVSS	low polyreactivity
QVHLVESGGGLVQAGGSLRLSCAASGSIFVPYAMGWYRQAPRKERELVAAINHGGGRTYADSVKGRFTISRDNAKNSVYLQMNSLKPDDTAVYYCAADGADKIGYYSYYYWGQGTQVTVSS	low polyreactivity
QVQLEESGVGLVQAGGSLRLSCAASGFTFYYNAMGWYRQAPGKERELVAGITWSGGSTYYADSVKGRFTISRDNAKNTVYLQMNSLKPEDTAVYYFAKDHQDSDYDYWGQGTQVTVSS	high polyreactivity

Sequence	polyreactivity (PSR sort gate)
QVQLVESGGGLGQAGGSLRLSCAASGSIFYYYAMGWYRQAPGKERELVASITSSGGTTSYADSVKGRFTISRDNAKNTVNLQMNSLKPEDTEVYYGNAQVYRYRIGYDYWGQGTQVTVSS	low polyreactivity
QVQLVESGGGLVQAGGSLRLSCDASGLIFYYYAMGWYRQAPGKERELVAAIRWSGGSTYYADSVKGRFTISRDNAKNTVYLQMNSLKPEDTAVYYCSEFYYWGQGTQVTVSS	high polyreactivity
QVQLVESGGGIVQAGGSLRLSCAASGSIFFYYAMGWFRPAPGQERELVAAITSSGGTTYYADSVKGRFTISRDNAKNTVYLEMNSLKPEDTAVYDCNALTVGQRDYDYWGQGTQVTVSS	high polyreactivity
QVQLVESGGGLVQAGGSLRLSCAASGNIFSRYAMGWYRQAPGKERELVAAISKSGGSTYYADSVKGRFTISRDNAKNTVYLQMNSLKPEDTAVYYCAAYTFFLGYPEFDYWGQGTQVTVSS	high polyreactivity
QVQLVESGGGLVQAGGTLRLSCAASGSIFAHYTMGWYRQAPGKERELVAVISRSGARTYYADSVKGRFTISRDNAKNTVYLQMNSLKPEDTAVYYCAADRTLEEDYWGQGTQVTVSS	low polyreactivity
QVQLVESGGGLVQAGGSLRLSCAASGSTFWFYAMGWYRQAPGKERELVAVISNYGSTYYADSVKGRFTISRDNAKNTVYLQMNSLITEDTAVYSCNKDGGGDSYWYDYWGQGTQVTVSS	low polyreactivity
QVQLVESGGGLDQAGGSLRLSCAASGITFTSYAMGWYRQAPGTEREFVAAISWTDTSTYYADSVKGRFTISRDNAKNTVYLQMNSLKPEDTAVYYCADEYEVGYFGYEYWGQGTQVTVSS	high polyreactivity
QVQLVESGGGLVQAGGSLRLSCAASGFTFNGYAMGWYRQAPGKERELVAAINWSGGRTYYADSVKGRFTISRDNAKNTVYLQMNSLKPEDTAVYYCNAVLYVTNSFRFDYWGQGTQVTVSS	high polyreactivity
QVQLVESGGGLVQAGGSLRLSCAASGRTFGANAMGWYRQAPGKERELVAAISSSDDSTYYADSVKGRFTISRDNAKKTDDLQMNSLKPEDTAVYYCAVAVGYTDSPYSYDYWGQGTQVTVSS	low polyreactivity
QFQLVESGGGLDQAGGSLRLTCAASGLTIRWYAMGWYRQAPGKERELVAAIRWSGGSTYYADSVKGRFTISRDNAKNTVYLQMNSLKPEDTALYYCAARFLGYQSGTERDYWGQGTQVTVSS	high polyreactivity
QVQLVESGGGLVQAGGSLRLSCAPSGSTIVRYAMGWYRQAPGKERELVAAISGSGGTTYYADSVKGRFTISRDNAKNTVYLQMNSLKPEDTAVYYCATRISAMDYWGQGTQVTVSS	high polyreactivity
QVQLVESGGVLVQAGGSLRLICAASGRIFGYYAMGWYRQAPGKERELVAAISNGGSTHYADSVKGRFTISRDNAKNTVYLQMNSLKPEDTAVYFCAAKASRVDWGYGYWGQATQVTVSS	high polyreactivity
QVQLVESGGGLVQAGGSLRLSCAASGFTFVSYAMGWYRQAPGKERELVAAISSRVVSTYYADSVKGRFTISRDNAKNTVYLQMNSLKPEDTAVYYCATDRYAYKLYDYWGQGTQVTVSS	low polyreactivity
QVQLVESGGGLVQAGGSLRLSCAASGSIFGGNAMGWYRPAPGTVRELVAAITSSGGSTYYADSVKGRFTMSRDNAKNTVYLQMNSLNPEDTAVYYSNKAYPGRTYDYWGQGTQVTVSS	high polyreactivity
QVQLVESGGGLVQAGGSLRLSCSASGFIFTYVMGWYRQAPGKERELVAVITNGGSTYYADSVKGRFTISRDNAMNTVYLQMNSLKPEDTAVYYCAARARFRYDSYYYWGQGTQVTVSS	high polyreactivity
QVQLVESGGGLVQAGGSLRLSCAASGSIFDSNAMGWYRQAPGKERELVASITSDGDTYYADSVKGRFTISRDNAKNTVYLQMNSLKPEVTAVYYCAAYVPYSGLDYWGQGTQVTVSS	low polyreactivity
QVQLVESGGGLVQAGGSHRLSCAASGSTFEYNDMGGNRQEQGKERELVAAISSGGDTNYADSVKGRFTISRDNAKNTVFLQMNSLKPEDTAVYYCAADDWSPYLCYYGYAGYYYCGQGTQVTVSS	low polyreactivity
QVQHVESGGGLVQAGGSLRLSCAASGRTYRYNAMGWYRQAPGKETELVAAITGGGSTNYADSVKGRFTISRDNAKYTVYLQMNSLKPEDTAVYYCATGGFKYWWLYPYDYWGQGTQVTVSS	low polyreactivity
QVQLVESGGGLVQAGGSLRLSCSASGRIFGYNAMGWSRQAPGKERELVAAISYSGTSTYYADSVKGRFTISRDKAKNTVYLQMNSLKPEDTAVYYCATLAYRWSVAYEYLGQGTQVTVSS	low polyreactivity
QVHLVESGGGLVQAGGSLRLSCAASGFTCGYNAMGWYRQAPGKETELVATICGGGRTKYADSVKGRFTLSRDNAKNTVYLQMNSLKPEDTAVYYCNVVQTYYRGSYIYIKYGYWGQGTQVTVSS	high polyreactivity
QVQLVESGGGIVQAGGSLRLSCAASGRIFSVYAKGWTRQAPGKERELVAAISSGGTTYYADSVKGRFTNSRDNAKNTVYLLMNSQKPDDTAVYYFAASVYYYRYNYWGQGTQVTVSS	low polyreactivity
